Source: publication PMC5034320, “Modulation of yeast telomerase activity by Cdc13 and Est1 in vitro”
Where a chain is given by its changes, count along the chain named.

B1: T21/C20 tailed duplex (mixed)
DNA 1: ATGGCTAGGTAGCCGAATTGCGTAGGTGGGTGTGGTGTGTGTGGG
DNA 2: CCCACCTACGCAATTCGGCTACCTAGCCAT
modifications: 3'-NH2 on C20

Legend:
[1] = target: T1, Cdc13-BD (Saccharomyces cerevisiae, UniProt P32797 451-693); assay: EMSA; 20-80 nM protein, 30 nM DNA; second BD molecule binds; EMSA: room temperature 5 min (30 C in Fig 5E), 30 nM DNA, 6% native gel, buffer not stated; DMS footprint: 50 mM cacodylate pH 7.0, 25 C 10 min, then 0.05% DMS; details: protein: recombinant; tags: 6xHis; label: 5'-32P; single strand
T1 sequence: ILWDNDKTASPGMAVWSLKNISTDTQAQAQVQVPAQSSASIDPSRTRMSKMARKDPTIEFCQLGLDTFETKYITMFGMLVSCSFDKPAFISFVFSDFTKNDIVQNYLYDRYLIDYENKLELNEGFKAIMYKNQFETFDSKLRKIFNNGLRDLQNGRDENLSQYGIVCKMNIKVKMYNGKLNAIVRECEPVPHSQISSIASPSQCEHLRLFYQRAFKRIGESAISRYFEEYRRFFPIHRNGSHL

[2] = target: T2, Cdc13 (Saccharomyces cerevisiae, UniProt P32797 1-924); assay: EMSA; 20-80 nM Cdc13, 30 nM DNA; EMSA: room temperature 5 min (30 C in Fig 5E), 30 nM DNA, 6% native gel, buffer not stated; DMS footprint: 50 mM cacodylate pH 7.0, 25 C 10 min, then 0.05% DMS; details: protein: recombinant, tags: 6xHis
T2 sequence: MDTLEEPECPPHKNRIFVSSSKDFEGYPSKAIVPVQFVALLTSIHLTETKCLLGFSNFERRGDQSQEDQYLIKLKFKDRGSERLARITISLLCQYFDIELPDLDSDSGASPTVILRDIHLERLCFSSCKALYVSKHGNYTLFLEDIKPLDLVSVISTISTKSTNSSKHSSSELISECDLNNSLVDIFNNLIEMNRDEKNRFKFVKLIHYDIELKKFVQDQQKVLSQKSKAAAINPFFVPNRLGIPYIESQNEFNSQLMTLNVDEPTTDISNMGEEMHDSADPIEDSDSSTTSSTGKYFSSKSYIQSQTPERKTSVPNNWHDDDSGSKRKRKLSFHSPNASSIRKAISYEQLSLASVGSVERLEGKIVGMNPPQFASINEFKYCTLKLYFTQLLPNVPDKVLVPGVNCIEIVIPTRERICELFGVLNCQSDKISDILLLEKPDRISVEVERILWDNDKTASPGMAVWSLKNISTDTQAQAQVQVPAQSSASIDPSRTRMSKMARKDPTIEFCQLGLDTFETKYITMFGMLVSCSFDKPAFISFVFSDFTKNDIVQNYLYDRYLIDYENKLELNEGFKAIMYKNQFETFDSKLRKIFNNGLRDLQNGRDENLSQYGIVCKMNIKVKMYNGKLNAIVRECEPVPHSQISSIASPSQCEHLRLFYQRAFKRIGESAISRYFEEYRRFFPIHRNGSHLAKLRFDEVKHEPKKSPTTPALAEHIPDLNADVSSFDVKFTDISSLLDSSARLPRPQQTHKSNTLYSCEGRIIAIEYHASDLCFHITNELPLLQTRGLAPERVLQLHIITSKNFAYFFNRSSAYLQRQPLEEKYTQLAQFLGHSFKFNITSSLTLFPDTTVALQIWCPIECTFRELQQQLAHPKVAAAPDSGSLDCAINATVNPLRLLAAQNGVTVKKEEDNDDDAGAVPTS

[3] = target: T3, Est1-TAP (Saccharomyces cerevisiae, UniProt P17214 1-699); assay: EMSA; Est1-TAP alone; no stable complex; EMSA: room temperature 5 min (30 C in Fig 5E), 30 nM DNA, 6% native gel, buffer not stated; DMS footprint: 50 mM cacodylate pH 7.0, 25 C 10 min, then 0.05% DMS; details: protein: recombinant; label: 5'-32P on T21; 3' overhang 15 nt (T21 strand)
T3 sequence: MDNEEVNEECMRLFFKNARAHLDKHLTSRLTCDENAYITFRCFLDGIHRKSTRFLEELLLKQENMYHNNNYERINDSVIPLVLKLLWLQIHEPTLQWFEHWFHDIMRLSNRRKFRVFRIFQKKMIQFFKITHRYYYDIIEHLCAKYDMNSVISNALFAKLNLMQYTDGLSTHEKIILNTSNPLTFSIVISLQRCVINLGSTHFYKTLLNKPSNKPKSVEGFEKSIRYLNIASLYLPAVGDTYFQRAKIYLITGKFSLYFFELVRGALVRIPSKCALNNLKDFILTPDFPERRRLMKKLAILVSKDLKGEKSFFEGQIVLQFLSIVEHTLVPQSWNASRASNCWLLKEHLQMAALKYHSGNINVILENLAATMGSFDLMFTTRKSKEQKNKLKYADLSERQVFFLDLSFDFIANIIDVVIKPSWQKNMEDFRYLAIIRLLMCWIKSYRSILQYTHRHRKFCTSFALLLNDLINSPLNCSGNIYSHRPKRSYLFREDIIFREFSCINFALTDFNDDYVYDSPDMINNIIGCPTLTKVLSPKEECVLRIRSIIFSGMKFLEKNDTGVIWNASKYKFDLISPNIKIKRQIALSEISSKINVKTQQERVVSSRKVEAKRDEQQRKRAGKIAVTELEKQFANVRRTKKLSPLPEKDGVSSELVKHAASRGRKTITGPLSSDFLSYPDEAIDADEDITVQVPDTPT

[4] = target: T4, Cdc13-2 (Saccharomyces cerevisiae, UniProt P32797 1-924, E252K); assay: EMSA; affinity similar to wild-type Cdc13; EMSA: room temperature 5 min (30 C in Fig 5E), 30 nM DNA, 6% native gel, buffer not stated; DMS footprint: 50 mM cacodylate pH 7.0, 25 C 10 min, then 0.05% DMS; details: protein: recombinant; tags: 6xHis; chain copies: 2; label: 5'-32P on T21; 3' overhang 15 nt (T21 strand)
T4 sequence: T2 sequence with E252K

Row | Binder | binding result [1] | binding result ([2]; label: 5'-32P, single strand) | binding result [3] | binding result ([2]; chain copies: 2, label: 5'-32P on T21, 3' overhang 15 nt (T21 strand)) | binding result [4]
1 | ATGGCTAGGTAGCCGAATTGCGTAGGTGGGTGTGGTGTGTGTGGG (ssDNA) [T21] | binds | binds | – | – | –
2 | B1 | – | – | no binding | binds | binds
